According to article PMC10899662, “TopBP1 utilises a bipartite GINS binding mode to support genome replication” (Nature Communications, 2024):

Tested on: GINS lacking the Psf1-B domain (Psf1-ΔB)
Assay: Pulldown of TopBP1 versions by GINS with Psf1-ΔB compared to GINS-WT
Type: binding
Conditions: GINS-WT vs Psf1-ΔB
Text: We next explored the relationship between the interactions of TopBP1 and DNA Polε with GINS. These proteins are part of the recently characterised metazoan pre-LC[37]–[40]. […] These pre-LC models are less informative on how DNA Polε affects the TopBP1-GINS interaction. The N-terminal region of PolE2 (PolE2-N; aa 1–75) binds GINS mainly at the Psf1-B domain, with minor interactions with residues in the A-domain that partly overlap with the TopBP1-BRCT4 interaction surface (Fig. 7a–c). To test if the Psf1-B domain is required for TopBP1 interaction, we did pulldowns with GINS lacking the Psf1-B domain (Psf1-ΔB). […] This could be due to a residual affinity of BRCT4 for Psf1-ΔB or due to the GINI-Psf1 interaction. We therefore analysed specifically the interaction of GINS with BRCT4 using the TopBP1-Gcc mutant. […] The moderate effect of the B domain deletion on BRCT4 binding is consistent with the partial overlap of the BRCT4 and PolE2 binding sites in Psf1. […] Together, in pre-LC, TopBP1 likely binds GINS through the GINI region, potentially also involving a residual affinity of BRCT4 for GINS despite the presence of DNA Polε. TopBP1 and GINS are likely further stabilised in pre-LCs via their interactions with DONSON[37],[38],[41]. […]

| Molecule | effect of Psf1-B domain deletion on TopBP1 binding, 100 mM NaAc |
| --- | --- |
| TopBP1-BRCT0-5-WT: recombinant TopBP1 amino acids 1–766, strep-tagged (protein, left off: Strep, C-terminal, kept, recombinant TopBP1 amino acids 1–766, strep-tagged) MSRNDKEPFFVKFLKSSDNSKCFFKALESIKEFQSEEYLQIITEEEALKIKENDRSLYICDPFSGVVFDHLKKLGCRIVGPQVVIFCMHHQRCVPRAEHPVYNMVMSDVTISCTSLEKEKREEVHKYVQMMGGRVYRDLNVSVTHLIAGEVGSKKYLVAANLKKPILLPSWIKTLWEKSQEKKITRYTDINMEDFKCPIFLGCIICVTGLCGLDRKEVQQLTVKHGGQYMGQLKMNECTHLIVQEPKGQKYECAKRWNVHCVTTQWFFDSIEKGFCQDESIYKTEPRPEAKTMPNSSTPTSQINTIDSRTLSDVSNISNINASCVSESICNSLNSKLEPTLENLENLDVSAFQAPEDLLDGCRIYLCGFSGRKLDKLRRLINSGGGVRFNQLNEDVTHVIVGDYDDELKQFWNKSAHRPHVVGAKWLLECFSKGYMLSEEPYIHANYQPVEIPVSHKPESKAALLKKKNSSFSKKDFAPSEKHEQADEDLLSQYENGSSTVVEAKTSEARPFNDSTHAEPLNDSTHISLQEENQSSVSHCVPDVSTITEEGLFSQKSFLVLGFSNENESNIANIIKENAGKIMSLLSRTVADYAVVPLLGCEVEATVGEVVTNTWLVTCIDYQTLFDPKSNPLFTPVPVMTGMTPLEDCVISFSQCAGAEKESLTFLANLLGASVQEYFVRKSNAKKGMFASTHLILKERGGSKYEAAKKWNLPAVTIAWLLETARTGKRADESHFLIENSTKEERSLETEITNGINLNSDTAEHP | the B domain had no influence |
| TopBP1-B4mut: Val590, Thr606 and Val610 mutated to glutamate, arginine and glutamate (protein, left off: Strep, C-terminal, kept) MSRNDKEPFFVKFLKSSDNSKCFFKALESIKEFQSEEYLQIITEEEALKIKENDRSLYICDPFSGVVFDHLKKLGCRIVGPQVVIFCMHHQRCVPRAEHPVYNMVMSDVTISCTSLEKEKREEVHKYVQMMGGRVYRDLNVSVTHLIAGEVGSKKYLVAANLKKPILLPSWIKTLWEKSQEKKITRYTDINMEDFKCPIFLGCIICVTGLCGLDRKEVQQLTVKHGGQYMGQLKMNECTHLIVQEPKGQKYECAKRWNVHCVTTQWFFDSIEKGFCQDESIYKTEPRPEAKTMPNSSTPTSQINTIDSRTLSDVSNISNINASCVSESICNSLNSKLEPTLENLENLDVSAFQAPEDLLDGCRIYLCGFSGRKLDKLRRLINSGGGVRFNQLNEDVTHVIVGDYDDELKQFWNKSAHRPHVVGAKWLLECFSKGYMLSEEPYIHANYQPVEIPVSHKPESKAALLKKKNSSFSKKDFAPSEKHEQADEDLLSQYENGSSTVVEAKTSEARPFNDSTHAEPLNDSTHISLQEENQSSVSHCVPDVSTITEEGLFSQKSFLVLGFSNENESNIANIIKENAGKIMSLLSRTEADYAVVPLLGCEVEARVGEEVTNTWLVTCIDYQTLFDPKSNPLFTPVPVMTGMTPLEDCVISFSQCAGAEKESLTFLANLLGASVQEYFVRKSNAKKGMFASTHLILKERGGSKYEAAKKWNLPAVTIAWLLETARTGKRADESHFLIENSTKEERSLETEITNGINLNSDTAEHP | the B domain had no influence |
